Article PMC7352202, “An Integrative Synthetic Biology Approach to Interrogating Cellular Ubiquitin and Ufm Signaling” (International Journal of Molecular Sciences, 2020)

Biological target: T1, GST-UFL1 (human, UniProt O94874 1-794)
T1 construct: UFL1, human, E3 ligase for ufmylation; purified recombinant GST-UFL1; The end of the GST tag is read from the printed name 'GST-UFL1'; source: E. coli BL21, purified (glutathione beads); not shown: GST, N-terminal, kept
T1 sequence (looked up): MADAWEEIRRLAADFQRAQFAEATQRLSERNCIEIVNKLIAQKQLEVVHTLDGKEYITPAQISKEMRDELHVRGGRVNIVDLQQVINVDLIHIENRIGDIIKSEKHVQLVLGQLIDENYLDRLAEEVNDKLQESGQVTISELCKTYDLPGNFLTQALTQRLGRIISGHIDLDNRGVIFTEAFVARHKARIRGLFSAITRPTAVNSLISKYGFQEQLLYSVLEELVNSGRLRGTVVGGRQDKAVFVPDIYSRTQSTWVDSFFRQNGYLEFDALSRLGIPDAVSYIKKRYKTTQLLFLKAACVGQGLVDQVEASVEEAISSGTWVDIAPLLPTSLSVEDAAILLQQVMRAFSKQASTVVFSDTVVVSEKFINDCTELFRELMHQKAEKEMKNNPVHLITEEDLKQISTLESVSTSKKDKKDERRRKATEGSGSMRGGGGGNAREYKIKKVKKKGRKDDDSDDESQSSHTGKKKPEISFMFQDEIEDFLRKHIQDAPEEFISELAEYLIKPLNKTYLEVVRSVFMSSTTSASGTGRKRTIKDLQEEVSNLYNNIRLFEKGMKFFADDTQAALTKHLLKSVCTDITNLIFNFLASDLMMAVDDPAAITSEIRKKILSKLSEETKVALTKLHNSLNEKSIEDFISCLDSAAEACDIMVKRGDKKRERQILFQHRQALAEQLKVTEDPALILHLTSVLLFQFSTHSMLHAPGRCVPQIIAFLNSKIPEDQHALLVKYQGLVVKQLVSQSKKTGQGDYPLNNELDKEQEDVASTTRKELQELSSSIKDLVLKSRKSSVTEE
Assay: pull-down; GST pull-down: purified GST-UFL1 (20 ug) and substrate-Flag-His6 (20 ug) with Glutathione Sepharose 4B beads, 4 °C overnight, 20 mM Tris-Cl, 100 mM NaCl, 5 mM MgCl2, 1 mM EDTA, 1 mM DTT, 0.5% NP-40, 10 ug/mL BSA, pH 7.5; immunoblot
Conditions: both partners purified

binding result: binds
B1: MT1M-Flag-His6 (natural protein)
chain: not shown
notes: MT1M, metallothionein family, human; purified recombinant MT1M-Flag-His6; The ends of the tags are read from the printed name; source: E. coli BL21, purified (Ni-NTA beads); not shown: Flag, C-terminal, kept; His6, C-terminal, kept
